Consider three compounds from patent US9943572B2, “Synergistic glycocalyx treatment compositions and methods” (Microvascular Health Solutions, LLC, priority 2015, dated 2018).

Data set [1] concerns cultured endothelial cells. Kind of data set: Labeled glucosamine administered to cultured endothelial cells. The data set is classed as cell-based. From the text: Indeed, glucosamine can increase synthesis of two main constituents of the endothelial glycocalyx, namely heparan sulfate and hyaluronan. […] Thus, the addition and/or administration of glucosamine can support endothelial glycocalyx production by providing a (necessary and/or rate-limiting) component in the synthesis thereof. Accordingly, glucosamine can be or comprise a molecular precursor of endothelial glycocalyx.

In the next data set the test system is endothelial glycocalyx. The data set is described as follows: Exogenous labeled SOD administered to mice, localization. The data set is classed as in vivo. The conditions noted are these: orally and/or intravenously. An excerpt:
By so doing, the local concentration of SOD at the endothelial glycocalyx is increased, providing added or enhanced (site-directed) protection against oxygen radicals at the endothelial glycocalyx. Thus, in addition to (naturally) produced SOD, which may be synthesized and bound to the endothelium, exogenous or administered SOD can (directly) associate with (bind to) endothelial glycocalyx. Accordingly, introduction and/or administration of SOD can provide site-directed antioxidant activity at the endothelial glycocalyx.

Data set [2] in a line: Catalase administered to mice, concentration in blood vessels. The data set is classed as in vivo. The conditions noted are these: oral and/or intravenous administration. An excerpt: Thus, in addition to (naturally) produced […], which may be produced and secreted into the blood stream, exogenous or administered catalase can be absorbed into the blood stream and be available for oxidant scavenging at or adjacent to the endothelial glycocalyx (and SOD bound thereto). Accordingly, introduction and/or administration of catalase can also provide antioxidant activity in blood vessels and/or at the endothelial glycocalyx.

For the compound `N[C@H]1C(O)O[C@H](CO)[C@@H](O)[C@@H]1O` (stereo partly drawn) [glucosamine, Glucosamine], the “incorporation of labeled glucosamine” value in data set [1] is “is incorporated in the glycocalyx”. As for Superoxide dismutase [SOD], the “localization of exogenous labeled SOD” value with endothelial glycocalyx is listed as “co-localizes (binds (directly) to) the endothelial glycocalyx”. catalase: in data set [2], the “catalase concentrations in blood vessels” value is given as “increases catalase concentrations in blood vessels”.
